Assay results published in publication PMC3098241, “Amyloid-Associated Nucleic Acid Hybridisation” (PLoS ONE, 2011).

B1: STVIIE (peptide)
peptide: STVIIE
notes: source: synthetic peptide, bought: Severn Biotech (UK), HPLC-purified
B2: TVQFHMH (peptide)
peptide: TVQFHMH
notes: source: synthetic peptide, bought: GL Biochem (PR China) or Peptide 2.0 (USA), 95% purity

What was measured:
[1] = target: the molecule itself; assay: circular dichroism + transmission electron microscopy; 0.8 mM STVIIE, 20 mM glycine pH 2.6, 20 C, spectra every 30 min for 24 h, without or with 242 nM 33mer DNA oligonucleotide (1:100 charge ratio); random coil to beta-sheet transition and fibrils
[2] = target: the molecule itself; assay: X-ray fibre diffraction; dried aligned stalks from gels of peptide with salmon testis DNA or poly(A) RNA (5 mM (KL)5 + 5 mM DNA, pH 7, 150 mM NaCl; 16 mM (HL)5 + 10 mM poly(A) RNA pH 6; 1.6 mM TVQFHMH + 1.6 mM DNA pH 5.0; 16 mM TVQFHMH + 10 mM poly(A) RNA pH 6.0; 10 mM (KL)3 + 10 mM DNA; 5 mM (HL)3 + 5 mM DNA pH 6.2); cross-beta pattern as the sign of peptide self-assembly

Row | Protein | binding result [1] | binding result [2]
1 | B1 | binds | 
2 | B2 |  | binds
